Test results: patent publication US20160272683A1 (Novo Nordisk, published 2016)
Blank lines part the entries; values can stand above or below the binder they belong to. Numbered stars: 1 amine (or outer) side, 2 acyl side, 3 side chain; on linkers, the order of the positions; unused ones are H or OH. * marks the point of attachment. C20 diacid = O=C(O)CCCCCCCCCCCCCCCCCCC(=O)*; C18 diacid = O=C(O)CCCCCCCCCCCCCCCCC(=O)*; γGlu = O=C(O)[C@H](CCC(=O)[*:2])N[*:1]

Biological target: T1, human amylin receptor (human calcitonin receptor + human RAMP3) (human) (UniProt P30988)
T1 sequence (looked up) 1: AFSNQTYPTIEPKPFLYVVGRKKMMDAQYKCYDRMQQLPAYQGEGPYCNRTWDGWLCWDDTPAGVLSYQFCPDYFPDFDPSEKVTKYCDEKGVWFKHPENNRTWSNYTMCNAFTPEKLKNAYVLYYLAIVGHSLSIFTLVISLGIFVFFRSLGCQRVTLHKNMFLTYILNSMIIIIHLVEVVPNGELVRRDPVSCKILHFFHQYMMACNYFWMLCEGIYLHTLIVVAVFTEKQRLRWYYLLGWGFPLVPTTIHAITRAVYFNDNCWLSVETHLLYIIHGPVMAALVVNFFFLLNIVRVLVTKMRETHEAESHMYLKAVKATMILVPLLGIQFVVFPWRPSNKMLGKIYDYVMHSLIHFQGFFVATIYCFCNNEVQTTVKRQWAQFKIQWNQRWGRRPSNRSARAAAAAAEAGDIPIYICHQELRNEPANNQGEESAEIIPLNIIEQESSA
T1 sequence (looked up) 2: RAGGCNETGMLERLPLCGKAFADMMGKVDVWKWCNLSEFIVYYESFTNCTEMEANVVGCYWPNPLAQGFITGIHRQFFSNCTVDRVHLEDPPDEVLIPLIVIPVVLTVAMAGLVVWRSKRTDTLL
Experiment: whole-cell competition vs 125I-rat amylin (Assay Va)

B1: [N-terminal(C18 diacid), 5I, 9I, 10I, 20I]mimylin (peptide)
peptide: {C18 diacid}-EASEISTAIIGRLSAELHEIATLPRTETGPESP-NH2
SMILES: CC[C@H](C)[C@H](NC(=O)[C@H](C)NC(=O)[C@@H](NC(=O)[C@H](CO)NC(=O)[C@@H](NC(=O)[C@H](CCC(=O)O)NC(=O)[C@H](CO)NC(=O)[C@H](C)NC(=O)[C@H](CCC(=O)O)NC(=O)CCCCCCCCCCCCCCCCC(=O)O)[C@@H](C)CC)[C@@H](C)O)C(=O)N[C@H](C(=O)NCC(=O)N[C@@H](CCCNC(=N)N)C(=O)N[C@@H](CC(C)C)C(=O)N[C@@H](CO)C(=O)N[C@@H](C)C(=O)N[C@@H](CCC(=O)O)C(=O)N[C@@H](CC(C)C)C(=O)N[C@@H](Cc1c[nH]cn1)C(=O)N[C@@H](CCC(=O)O)C(=O)N[C@H](C(=O)N[C@@H](C)C(=O)N[C@H](C(=O)N[C@@H](CC(C)C)C(=O)N1CCC[C@H]1C(=O)N[C@@H](CCCNC(=N)N)C(=O)N[C@H](C(=O)N[C@@H](CCC(=O)O)C(=O)N[C@H](C(=O)NCC(=O)N1CCC[C@H]1C(=O)N[C@@H](CCC(=O)O)C(=O)N[C@@H](CO)C(=O)N1CCC[C@H]1C(N)=O)[C@@H](C)O)[C@@H](C)O)[C@@H](C)O)[C@@H](C)CC)[C@@H](C)CC
IC50: 998 pM

B2: [N-terminal(C18 diacid-gGlu), des1, 4Q, 30S, 31G]mimylin (peptide)
peptide: {C18 diacid-γGlu}-ASQLSTAALGRLSAELHELATLPRTETGSGSP-NH2
SMILES: CC(C)C[C@H](NC(=O)[C@H](C)NC(=O)[C@H](C)NC(=O)[C@@H](NC(=O)[C@H](CO)NC(=O)[C@H](CC(C)C)NC(=O)[C@H](CCC(N)=O)NC(=O)[C@H](CO)NC(=O)[C@H](C)NC(=O)CC[C@H](NC(=O)CCCCCCCCCCCCCCCCC(=O)O)C(=O)O)[C@@H](C)O)C(=O)NCC(=O)N[C@@H](CCCNC(=N)N)C(=O)N[C@@H](CC(C)C)C(=O)N[C@@H](CO)C(=O)N[C@@H](C)C(=O)N[C@@H](CCC(=O)O)C(=O)N[C@@H](CC(C)C)C(=O)N[C@@H](Cc1c[nH]cn1)C(=O)N[C@@H](CCC(=O)O)C(=O)N[C@@H](CC(C)C)C(=O)N[C@@H](C)C(=O)N[C@H](C(=O)N[C@@H](CC(C)C)C(=O)N1CCC[C@H]1C(=O)N[C@@H](CCCNC(=N)N)C(=O)N[C@H](C(=O)N[C@@H](CCC(=O)O)C(=O)N[C@H](C(=O)NCC(=O)N[C@@H](CO)C(=O)NCC(=O)N[C@@H](CO)C(=O)N1CCC[C@H]1C(N)=O)[C@@H](C)O)[C@@H](C)O)[C@@H](C)O
IC50: 587 pM

Continued by falling IC50, values first:

IC50: 764 pM
B3: [N-terminal(C18 diacid-gGlu), des1, 9V, 30S, 31G]mimylin (peptide)
peptide: {C18 diacid-γGlu}-ASELSTAVLGRLSAELHELATLPRTETGSGSP-NH2
SMILES: CC(C)C[C@H](NC(=O)[C@H](CCC(=O)O)NC(=O)[C@H](Cc1c[nH]cn1)NC(=O)[C@H](CC(C)C)NC(=O)[C@H](CCC(=O)O)NC(=O)[C@H](C)NC(=O)[C@H](CO)NC(=O)[C@H](CC(C)C)NC(=O)[C@H](CCCNC(=N)N)NC(=O)CNC(=O)[C@H](CC(C)C)NC(=O)[C@@H](NC(=O)[C@H](C)NC(=O)[C@@H](NC(=O)[C@H](CO)NC(=O)[C@H](CC(C)C)NC(=O)[C@H](CCC(=O)O)NC(=O)[C@H](CO)NC(=O)[C@H](C)NC(=O)CC[C@H](NC(=O)CCCCCCCCCCCCCCCCC(=O)O)C(=O)O)[C@@H](C)O)C(C)C)C(=O)N[C@@H](C)C(=O)N[C@H](C(=O)N[C@@H](CC(C)C)C(=O)N1CCC[C@H]1C(=O)N[C@@H](CCCNC(=N)N)C(=O)N[C@H](C(=O)N[C@@H](CCC(=O)O)C(=O)N[C@H](C(=O)NCC(=O)N[C@@H](CO)C(=O)NCC(=O)N[C@@H](CO)C(=O)N1CCC[C@H]1C(N)=O)[C@@H](C)O)[C@@H](C)O)[C@@H](C)O

IC50: 111 pM
Binder: {C20 diacid-γGlu}-ASGLSTAALGRLSAELHELATYPRTETGSGSP-NH2 [[N-terminal(C20 diacid-gGlu), des1, 4G, 23Y, 30S, 31G]mimylin]
